The source of these data is publication PMC8892339 (2022).

Experiment in all cases: SPR, 37 °C
Background: Surface plasmon resonance follows binding to a sensor surface in real time, without labels.

Assay [1] has as its target CD3ζ ITAM3 C peptide ITAM3 (Homo sapiens, UniProt P20963, C-terminal ITAM tyrosine monophosphorylated peptide; tSH2-GFP fusion).
The target in assay [2] is CD3ζ ITAM3 NC peptide ITAM3 (Homo sapiens, UniProt P20963, both ITAM tyrosines phosphorylated peptide; tSH2-GFP fusion).
Chain of CD3ζ ITAM3 NC peptide ITAM3 (P20963 128-162): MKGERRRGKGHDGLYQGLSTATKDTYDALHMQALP
Assay [3] concerns the target CD3ζ ITAM3 N peptide ITAM3 (Homo sapiens, UniProt P20963, N-terminal ITAM tyrosine monophosphorylated peptide; tSH2-GFP fusion).

Chain of CD3ζ ITAM3 C peptide ITAM3 (P20963 128-162): as above
Chain of CD3ζ ITAM3 N peptide ITAM3 (P20963 128-162): as above

B1: ZAP70 tandem SH2 (protein)
chain: MPDPAAHLPFFYGSISRAEAEEHLKLAGMADGLFLLRQCLRSLGGYVLSLVHDVRFHHFPIERQLNGTYAIAGGKAHCGPAELCEFYSRDPDGLPCNLRKPCNRPSGLEPQPGVFDCLRDAMVRDYVRQTWKLEGEALEQAIISQAPQVEKLIATTAHERMPWYHSSLTREEAERKLYSGAQTDGKFLLRPRKEQGTYALSLIYGKTVYHYLISQDKAGKYCIPEGTKFDTLWQLVEYLKLKADGLIYCLKEACPNSSA
As for B1, the Kd (as a rule, the free concentration of one partner at which half of the binding sites on the other are occupied at equilibrium, for simple one-to-one binding) in assay [1] came out at 7.52 µM; in assay [2], 0.0962 µM; in assay [3], 20.7 µM.
